Experimental data as given in US20170226560.

Target: peptide substrate shown in FIG. 9a (Protease K substrate)

B1: Protease K (protein)
chain: AAQTNAPWGLARISSTSPGTSTYYYDESAGQGSCVYVIDTGIEASHPEFEGRAQMVKTYYYSSRDGNGHGTHCAGTVGSRTYGVAKKTQLFGVKVLDDNGSGQYSTIIAGMDFVASDKNNRNCPKGVVASLSLGGGYSSSVNSAAARLQSSGVMVAVAAGNNNADARNYSPASEPSVCTVGASDRYDRRSSFSNYGSVLDIFGPGTSILSTWIGGSTRSISGTSMATPHVAGLAAYLMTLGKTTAASACRYIADTANKGDLSNIPFGTVNLLAYNNYQA
In the case of B1, the “ratio of the absorption at 700 nm/520 nm (750 nM peptide, Protease K up to 300 pM, 60 min, 20 C)” value is reported as “With increasing amounts of protease K the spectrum shifts back toward the native spectrum seen in the gold nanoparticles alone and the ratio falls to nearly 0”.
